According to patent US20020147999A1 (J DAVID GLADSTONE INSTITUTES, published 2002):

The binders below were run against apoE cleavage enzyme (chymotrypsin-like serine protease; in mouse brain lysate or roughly/partially purified) (assay: cell-based or functional assay).

For AAAAPF [Ala-Ala-Ala-Ala-Pro-Phe (SEQ ID NO:4)], which “inhibition of apoE cleavage enzyme activity (chromogenic assay, 1 mM Ala-Ala-Pro-Phe-p-nitroanilide; 6 mM peptide; 20 hour incubation)” value is on record?
Its value is 58%.

AAPL [Ala-Ala-Pro-Leu (SEQ ID NO:3)] was tested. Which “inhibition of apoE cleavage enzyme activity (chromogenic assay, 1 mM Ala-Ala-Pro-Phe-p-nitroanilide; 6 mM peptide; 20 hour incubation)” value did it give?
Its value is 56%.

For AAPF [Ala-Ala-Pro-Phe (SEQ ID NO:1)], which “inhibition of apoE cleavage enzyme activity (chromogenic assay, 1 mM Ala-Ala-Pro-Phe-p-nitroanilide; 6 mM peptide; 20 hour incubation)” value is on record?
The value was 67%.
